Results from the supplement of paper PMC9112550, “Optimization of the antimicrobial peptide Bac7 by deep mutational scanning” (BMC Biology, 2022).

System: Escherichia coli TOP10
Assay: shrunken log2 fold change of peptide-encoding DNA abundance (4.5 h post-induction vs induction); higher = less antimicrobial activity (less host growth inhibition)
Details: time post-induction: 4.5 h; library: site-saturation at positions 5, 18, 19, 20
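Further: peptides expressed intracellularly from a pBAD plasmid library in pooled LB shake-flask culture, induced with 0.3% L-arabinose, DNA abundance read by NGS, three biological replicates, DESeq2 with apeglm shrinkage.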

Sequence	shrunken log2 fold change
RRIRVRPPRLPRPRPRPTHVPRP	0.0149
RRIRWRPPRLPRPRPRPNCGPRP	0.192
RRIRARPPRLPRPRPRPHAFPRP	0.231
RRIRTRPPRLPRPRPRPCCTPRP	-0.0782
RRIRWRPPRLPRPRPRPDMQPRP	0.337
RRIRDRPPRLPRPRPRPQLNPRP	-0.267
RRIRERPPRLPRPRPRPRFVPRP	-0.373
RRIRMRPPRLPRPRPRPIGDPRP	0.0215
RRIRPRPPRLPRPRPRPRWFPRP	0.405
RRIRQRPPRLPRPRPRPRSKPRP	0.185
RRIRVRPPRLPRPRPRPPHRPRP	0.29
RRIRYRPPRLPRPRPRPRWHPRP	-0.124
RRIRNRPPRLPRPRPRPKMHPRP	-0.0913
RRIRYRPPRLPRPRPRPDRHPRP	-0.189
RRIRGRPPRLPRPRPRPHHVPRP	-0.00478
RRIRIRPPRLPRPRPRPWEGPRP	-0.152
RRIRYRPPRLPRPRPRPPLSPRP	-0.283
RRIRKRPPRLPRPRPRPGELPRP	-0.012
RRIRERPPRLPRPRPRPDCIPRP	0.0113
RRIRCRPPRLPRPRPRPHRDPRP	-0.3
RRIRERPPRLPRPRPRPVWMPRP	-0.0846
RRIRVRPPRLPRPRPRPKSIPRP	-0.172

Sequence	shrunken log2 fold change
RRIRIRPPRLPRPRPRPMYDPRP	-0.726
RRIRERPPRLPRPRPRPKRQPRP	-0.0958
RRIRTRPPRLPRPRPRPQFYPRP	-0.791
RRIRWRPPRLPRPRPRPAVVPRP	0.0979
RRIRDRPPRLPRPRPRPAAYPRP	0.174
RRIRNRPPRLPRPRPRPHSTPRP	-0.412
RRIRHRPPRLPRPRPRPVDYPRP	-0.253
RRIRHRPPRLPRPRPRPDFGPRP	-0.156
RRIRFRPPRLPRPRPRPSYEPRP	1.66
RRIRVRPPRLPRPRPRPWNFPRP	-0.102
RRIRARPPRLPRPRPRPGKQPRP	0.292
RRIRNRPPRLPRPRPRPVKCPRP	0.0182
RRIRFRPPRLPRPRPRPTNNPRP	-0.644
RRIRIRPPRLPRPRPRPHSFPRP	-0.643
RRIRDRPPRLPRPRPRPAQRPRP	0.152
RRIRQRPPRLPRPRPRPRAWPRP	0.123
RRIRYRPPRLPRPRPRPDAVPRP	-0.365
RRIRWRPPRLPRPRPRPKRVPRP	0.383
RRIRQRPPRLPRPRPRPKMFPRP	0.106
RRIRDRPPRLPRPRPRPVGLPRP	0.627
RRIRERPPRLPRPRPRPMYVPRP	-0.0843
RRIRWRPPRLPRPRPRPFEYPRP	-0.331

Sequence	shrunken log2 fold change
RRIRRRPPRLPRPRPRPSSWPRP	-0.162
RRIRWRPPRLPRPRPRPCFCPRP	0.126
RRIRGRPPRLPRPRPRPNVFPRP	0.27
RRIRHRPPRLPRPRPRPCIYPRP	-0.196
RRIRSRPPRLPRPRPRPCKFPRP	-0.301
RRIRCRPPRLPRPRPRPGGKPRP	-0.0361
RRIRERPPRLPRPRPRPRTYPRP	-0.517
RRIRIRPPRLPRPRPRPHFWPRP	0.0146
RRIRKRPPRLPRPRPRPYVAPRP	0.111
RRIRVRPPRLPRPRPRPWSIPRP	-0.0192
RRIRFRPPRLPRPRPRPVSGPRP	-0.0636
RRIRKRPPRLPRPRPRPKGIPRP	0.106
RRIRIRPPRLPRPRPRPSNRPRP	-0.139
RRIRERPPRLPRPRPRPNQDPRP	0.169
RRIRLRPPRLPRPRPRPEYTPRP	-0.0657
RRIRRRPPRLPRPRPRPDEEPRP	0.526
RRIRNRPPRLPRPRPRPYHVPRP	-0.116
RRIRLRPPRLPRPRPRPPFCPRP	0.701
RRIRCRPPRLPRPRPRPARCPRP	0.477
RRIRIRPPRLPRPRPRPSYDPRP	-0.414
RRIRERPPRLPRPRPRPWQVPRP	0.0371
RRIRHRPPRLPRPRPRPFKKPRP	-0.00783

Sequence	shrunken log2 fold change
RRIRGRPPRLPRPRPRPATNPRP	0.766
RRIRQRPPRLPRPRPRPAYDPRP	-0.0146
RRIRFRPPRLPRPRPRPADYPRP	-0.207
RRIRFRPPRLPRPRPRPWWYPRP	-0.238
RRIRCRPPRLPRPRPRPMQTPRP	1.52
RRIRIRPPRLPRPRPRPNADPRP	-0.322
RRIRKRPPRLPRPRPRPPWFPRP	0.309
RRIRLRPPRLPRPRPRPTHQPRP	0.592
RRIRVRPPRLPRPRPRPCKMPRP	-0.159
RRIRSRPPRLPRPRPRPQFIPRP	-1.79
RRIRKRPPRLPRPRPRPWYIPRP	-0.568
RRIRGRPPRLPRPRPRPWLMPRP	0.428
RRIRFRPPRLPRPRPRPCCVPRP	-0.189
RRIRARPPRLPRPRPRPKCPPRP	-0.0505
RRIRFRPPRLPRPRPRPMKPPRP	-0.0229
RRIRERPPRLPRPRPRPDVPPRP	-0.117
RRIRRRPPRLPRPRPRPCTAPRP	0.866
RRIRARPPRLPRPRPRPRAWPRP	0.699
RRIRLRPPRLPRPRPRPDSVPRP	0.0031
RRIRVRPPRLPRPRPRPYGYPRP	-1.16
RRIRNRPPRLPRPRPRPAQRPRP	-0.0476
RRIRLRPPRLPRPRPRPSQLPRP	-0.282

Sequence	shrunken log2 fold change
RRIRPRPPRLPRPRPRPKEWPRP	-0.00152
RRIRPRPPRLPRPRPRPASLPRP	0.187
RRIRRRPPRLPRPRPRPQECPRP	-0.0184
RRIRYRPPRLPRPRPRPENAPRP	0.0607
RRIRERPPRLPRPRPRPFYKPRP	0.187
RRIRSRPPRLPRPRPRPRKFPRP	0.015
RRIRQRPPRLPRPRPRPRTVPRP	0.349
RRIRMRPPRLPRPRPRPMVWPRP	1.09
RRIRERPPRLPRPRPRPACAPRP	0.455
RRIRKRPPRLPRPRPRPHHLPRP	-0.232
RRIRNRPPRLPRPRPRPYKPPRP	-0.0731
RRIRMRPPRLPRPRPRPRRTPRP	1.76
RRIRHRPPRLPRPRPRPRRWPRP	-0.00291
RRIRCRPPRLPRPRPRPYGPPRP	-0.398
RRIRWRPPRLPRPRPRPQYVPRP	0.00889
RRIRRRPPRLPRPRPRPEESPRP	1.5
RRIRIRPPRLPRPRPRPAEAPRP	0.0803
RRIRFRPPRLPRPRPRPSCIPRP	-0.603
RRIRRRPPRLPRPRPRPSWEPRP	0.1
RRIRTRPPRLPRPRPRPATCPRP	2.77
RRIRVRPPRLPRPRPRPGGWPRP	0.72
